The test system of the assay is CCR10+ EphA3+ cells. As to the kind of experiment: Humanized NSG mouse model of IPF: KB004 / KB243 mAb treatment (hydroxyproline, Masson's trichrome, flow cytometry). It counts as in vivo, human IPF cells in NSG mice. The source says: Six to eight-week old, female, pathogen free NOD Cg-Prkdc^SCID IL2rg^Tm1wil Szi (NSG) or NOD.Cg-Prkdc^SCID IL2rg^tm1Wil Tg(CAG-EGFP) 10sb/SzJ (NSG-GFP) were purchased from Jackson Laboratories and housed in Cedars-Sinai Medical Center's high isolation animal rooms. NSG mice were allowed a minimum of one week to acclimate in the facility and then these mice either received nothing (i.e., non-humanized) 1×10^6 IPF cells by intravenous injection (i.e. humanized). In most in vivo experiments, the IPF cells used were removed from liquid N2 storage, rapidly thawed, and washed in serum-free medium prior to injection into NSG mice. […] […] Other groups of humanized NSG mice received either vehicle (i.e., solutol) or BIBF1120 (Cayman Chemicals) by oral gavage beginning at day 35 after IPF cell injection. Vehicle or drug was administered 5 days a week until day 63 after IPF cell injection. All NSG groups were monitored daily and mice were sacrificed if there is evidence for morbidity such as weight loss of more than 20%, loss of fur, paralysis and/or lack of responsiveness when handled.
Murine lung cellular suspensions were generated using a mouse lung dissociation kit, C-tubes, and a GentleMacs dissociator (Miltenyi Biotech). Spleens were dissociated using a sterile rubber tip of 1 ml syringe plunger and 100 μm 50 ml tube filters (BD bioscience) as follows: isolated spleens were placed in 1 ml of sterile complete medium until all the samples were collected. Sterile 50 ml conical tube filters were placed on top of sterile 50 ml conical tubes and were equilibrated by pipetting 1 ml of calcium and magnesium free DPBS (DBPS; Cellgro) through the filters. Spleens were transferred to a sterile 50 ml filter, cellular suspensions were generated using a sterile rubber tip of a syringe plunger, and splenic material was flushed with 5 ml of DPBS. Lung and splenic cell suspensions were centrifuged and resuspended in 1 ml of RBC lysis buffer (Biolegend), incubated at room temperature for 1-2 min and then equilibrated by adding 25 ml of DPBS to each tube. Cells were centrifuged and resuspended in flow cytometric wash/staining buffer (DPBS+2% FBS) in the presence of human and mouse Fc receptor blocking antibodies (Biolegend). Cells were then stained with anti-human-CD45, -EpCAM and -CCR10 antibodies for 20 min at 4° C. Unstained, isotype controls, fluorescent minus one controls and staining in non-humanized murine lung and spleen suspensions were utilized to gate out any non-specific antibody binding and background fluorescence. CCR10 antibodies were validated via the enrichment for CCR10 transcripts in magnetically sorted CCR10^+ cells versus non-sorted normal and IPF explant cells (FIG. 35). Flow cytometric data were acquired within one week of staining using a LSR Frotessa (BD Biosciences) or MACSQuant 10 (Miltenyi Biotech) flow cytometers and data were analyzed using Flowjo software V10.2 (Treestar Inc.). The resulting gates from non-humanized NSG-GFP mice were used to identify human CD45-, EPCAM-, CCR10-, and PDGFRα-stained cells (FIGS. 36C & 21F).
Lung tissue was fixed in 10% NBF solution for 24 h and subsequently transferred into tissue cassettes and kept in a 70% ethanol solution for approximately 24 h, Lungs were then processed using routine histology techniques and stained using Masson's trichrome. A Zeiss Axio Observer Z1 microscope and the Zeiss Zen 2012 v 1.1.2.0 software (Zeiss) were used to obtain representative images.
Total lung hydroxyproline was analyzed. […] On the day of the assay, tissues were thawed and […] of distilled water (dH2O) was added to the tissues. Tissues were homogenized using a micro-sample homogenizer (Pro Scientific) as follows: the homogenizing tip was washed in 70% ethanol, then dH2O and then utilized to homogenize the tissues. The homogenizer was washed in dH2O between samples and a new batch of dH2O was utilized after 5 samples. […]

The mark [1] stands for this setting: prophylactic, 5 mg/kg days 0 to 35, day 35, flow cytometry.
Setting [2] is: treatment beginning at day 7, day 35.

B1: KB004: afucosylated anti-EphA3 mAb supplied by Kalobios; targets EphA3+ cells via antibody-dependent cell-mediated cytotoxicity (ADCC) (antibody, chains of the INN, looked up, V domains shown)
VH: QVQLVQSGAEVKKPGASVKVSCKASGYTFTGYWMNWVRQAPGQGLEWMGDIYPGSGNTNYDEKFQGRVTMTRDTSISTAYMELSRLRSDDTAVYYCARGGYYEDFDSWGQGTTVTVSS
VL: DIQMTQSPSFLSASVGDRVTITCRASQGIISYLAWYQQKPEKAPKRLIYAASSLQSGVPSRFSGSGSGTEFTLTISSLQPEDFATYYCGQYANYPYTFGQGTKLEIK
Regarding B1, under “prophylactic treatment over 35 days”, the “development of lung fibrosis” value is listed as “completely prevented”. Also, under setting [1], the “CCR10+ CD45+ cells in lungs, KB004 versus KB243” value is “significant reduction” and the “CCR10+ Lin- cells in lungs, KB004 versus KB243” value is reported as “significant reduction”. Further, the “hydroxyproline in the lungs” value (prophylactic, 5 mg/kg i.p. twice weekly days 0 to 35, day 35) is given as “significantly reduced”. Also, the “numbers of CD45+ and Lin- CCR10+ cells and pulmonary fibrosis” value (therapeutic treatment from days 35 to 63) is recorded as “failed to reduce”. Further, under “therapeutic, days 35 to 63”, the “histological appearance, KB243 versus KB004” value is listed as “no significant difference” and the “lung hydroxyproline, KB243 versus KB004” value was “no significant difference”. In addition, the “CCR10+ cell numbers, KB243 versus KB004” value (therapeutic, days 35 to 63, flow cytometry) is given as “no significant difference”. Also, the “hydroxyproline in humanized NSG lungs relative to non-humanized mice” value (therapeutic, starting at day 35, day 63) is “elevated”. In addition, under setting [2], the “histological interstitial consolidation, KB004 compared to KB243” value was “ameliorated” and the “number of CD45+ CCR10+ cells, KB004 compared to KB243” value is “significant reduction”. In addition, the “lung hydroxyproline, KB004 compared to KB243” value (treatment beginning at day 7 after IPF cell injection, day 35) is “lower”.

For the origin of these results see patent publication US11397178B2, “Method of predicting progression of idiopathic pulmonary fibrosis and monitoring of therapeutic efficacy” (Cedars-Sinai Medical Center, priority 2016, dated 2022).
